Source: PMC11464748, “A novel assay of excess plasma kallikrein-kinin system activation in hereditary angioedema” (Frontiers in Allergy, 2024)
“And” between values parts separate entries of the source, which are not always exact repeats. Equal entries are not always repeated.

Legend:
Details in all cases: both partners purified
[1] = biological target: T1, cleaved high-molecular-weight kininogen (HKa), purified (Homo sapiens, UniProt P01042, biotin (biotinylated HKa in the Fab screening ELISA) | biotin (biotinylated HKa in the Fab screening ELISA)); assay: SPR; in the absence of zinc chloride
T1 construct: heavy chain of HKa, the two-chain disulfide-linked product of high-molecular-weight kininogen after release of bradykinin, human; light chain of HKa, human; the purified HKa standard mainly consists of the 46-kDa light chain; also called cleaved HK; purified HKa standard protein; source: bought: Enzyme Research Laboratories

[2] = biological target: T1, cleaved high-molecular-weight kininogen …; assay: SPR; in the presence of zinc chloride
[3] = biological target: T2, cleaved high-molecular-weight kininogen (HKa) (Homo sapiens, UniProt P01042); assay: SPR; HKa immobilised by amine coupling on a CM5 chip (~400 RU), M4-B4 injected 2 min at 50 uL/min, 15 min dissociation; Biacore 3000, 25°C, HBS-P (10 mM HEPES pH 7.4, 150 mM NaCl, 0.005% P20); no added ZnCl2; 1:1 model
T2 construct: the two chains are linked by a disulfide; light chain of HKa (56-kDa or 46-kDa form); the purified HKa standard protein mainly consists of the 46-kDa light chain; also called cleaved HK; source: bought: Enzyme Research Laboratories
T2 sequence (P01042 whole entry, looked up): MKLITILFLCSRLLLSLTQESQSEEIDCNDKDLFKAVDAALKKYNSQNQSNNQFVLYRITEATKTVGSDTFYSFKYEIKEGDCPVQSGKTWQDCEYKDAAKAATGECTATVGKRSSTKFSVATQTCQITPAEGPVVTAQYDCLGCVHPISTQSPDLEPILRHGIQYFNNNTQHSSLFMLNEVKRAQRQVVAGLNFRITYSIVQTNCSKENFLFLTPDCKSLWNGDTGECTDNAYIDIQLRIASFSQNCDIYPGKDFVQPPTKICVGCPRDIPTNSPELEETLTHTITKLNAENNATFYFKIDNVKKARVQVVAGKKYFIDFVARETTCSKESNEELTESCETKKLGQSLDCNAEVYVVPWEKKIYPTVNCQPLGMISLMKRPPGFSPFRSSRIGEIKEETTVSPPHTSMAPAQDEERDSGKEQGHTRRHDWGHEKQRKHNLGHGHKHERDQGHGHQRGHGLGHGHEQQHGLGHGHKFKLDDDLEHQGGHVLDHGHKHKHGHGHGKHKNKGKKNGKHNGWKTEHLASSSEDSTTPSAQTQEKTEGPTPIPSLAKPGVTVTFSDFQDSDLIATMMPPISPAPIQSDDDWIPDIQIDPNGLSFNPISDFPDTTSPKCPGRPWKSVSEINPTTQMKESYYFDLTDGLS

[4] = biological target: T2, cleaved high-molecular-weight kininogen …; assay: SPR; HKa immobilised by amine coupling on a CM5 chip (~400 RU), M4-B4 injected 2 min at 50 uL/min, 15 min dissociation; Biacore 3000, 25°C, HBS-P (10 mM HEPES pH 7.4, 150 mM NaCl, 0.005% P20) with 200 uM ZnCl2; regeneration 10 mM glycine pH 1.5; 1:1 model

B1: M4-B4 antibody (Fab or IgG, format not told for the experiment) (antibody, V domains shown)
VH: EVQLLESGGGLVQPGGSLRLSCAASGFTFSFYVMVWVRQAPGKGLEWVSGISPSGGNTAYADSVKGRFTISRDNSKNTLYLQMNSLRAEDTAVYYCARKLFYYDDTKGYFDFWGQGTLVTVSS
VL: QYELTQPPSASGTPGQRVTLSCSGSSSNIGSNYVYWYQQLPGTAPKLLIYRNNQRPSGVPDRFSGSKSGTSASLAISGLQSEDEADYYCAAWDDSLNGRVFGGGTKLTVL
notes: variable part as the heavy chain of m1; as the light chain of m1; The optimised ELISA coated 'the M4-B4 Fab or IgG'; also called HKa-specific antibody
B1 was tested, and the Kd [1] was 6.08 ± 0.26 nM and the Kd [2] was 1.06 ± 0.25 nM.

B2: M4-B4 (antibody, V domains shown)
VH: EVQLLESGGGLVQPGGSLRLSCAASGFTFSFYVMVWVRQAPGKGLEWVSGISPSGGNTAYADSVKGRFTISRDNSKNTLYLQMNSLRAEDTAVYYCARKLFYYDDTKGYFDFWGQGTLVTVSS
VL: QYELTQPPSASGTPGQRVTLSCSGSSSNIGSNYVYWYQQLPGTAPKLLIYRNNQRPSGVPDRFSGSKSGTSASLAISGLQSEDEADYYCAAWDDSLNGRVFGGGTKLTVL
notes: The legend of the SPR says only 'M4-B4 injected'; also called M004-B04; 559B-M0004-B04; source: Fab: E. coli, purified (protein A Sepharose); IgG1: 293T cells, transiently expressed, purified (protein A Sepharose)
B2 was tested, and the Kd [3] was 5.9 nM and 6.26 nM, the koff [3] was 0.0067 s⁻¹ and 0.00616 s⁻¹ and 0.00643 s⁻¹ and the kon [3] was 1.1e+06 M⁻¹ s⁻¹ (2×) and 984000 M⁻¹ s⁻¹. The Kd [4] was 1.09 nM and 1.24 nM and 0.881 nM, the koff [4] was 0.00125 s⁻¹ and 0.00172 s⁻¹ and 0.00156 s⁻¹ and 0.00164 s⁻¹ and the kon [4] was 1.38e+06 M⁻¹ s⁻¹ and 1.77e+06 M⁻¹ s⁻¹ and 1.58e+06 M⁻¹ s⁻¹ and 1.15e+06 M⁻¹ s⁻¹.
